# Target: T1, FRB-24-mCherry-Wp3-TwinStrep
# T1 construct: also called Negative control (mCherry); FRB-mCherry fusion
# Assay: OECT transfer curves (ID against VG), PEDOT:PSS channel
binder,measurement,value
"GFPnanobody-8aa-SpyCatcher-3C cleavage site-His10 (VHH, also called anti-GFP nanobody; GFP nanobody-SpyCatcher) VHH: QVQLVESGGALVQPGGSLRLSCAASGFPVNRYSMRWYRQAPGKEREWVAGMSSAGDRSSYEDSVKGRFTISRDDARNTVYLQMNSLKPEDTAVYYCNVNVGFEYWGQGTQVTVSS",binding result,no binding (tested: 2 x 10^-8 M)

# — US20240280570A1 (KING ABDULLAH UNIVERSITY OF SCIENCE AND TECHNOLOGY, published 2024)
